The values that follow come from the supplement of paper PMC5998384.

Series [1] concerns HeLa Kyoto. In words: solubility in G1/S (NP-40 vs SDS abundance) (log2 ratio); higher = more soluble. The note with it: cell cycle stage: G1/S.
Series [2] has as its system HeLa Kyoto. In words: solubility change mitosis vs G1/S (difference of NP-40 vs SDS log2 ratios) (log2 ratio difference); higher = more soluble in mitosis.
The subject of series [3] is HeLa Kyoto. The series is described as follows: melting temperature (median over replicates), in situ; higher = more thermally stable.
In series [4] the test system is HeLa Kyoto. In words: thermal stability score vs G1/S (z-score of summed log2 fold changes over temperatures); higher = more thermally stable than in G1/S.
Where [5] appears, read: cell cycle stage: early G1 (4.5 h after nocodazole release).
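Throughout, for melting temperature (median over replicates), in situ: HeLa Kyoto cells synchronized by double thymidine or nocodazole block, proteins quantified by TMT10plex mass spectrometry, three independent biological replicates.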
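Throughout, for solubility change mitosis vs G1/S (difference of NP-40 vs SDS log2 ratios): synchronized HeLa Kyoto cells (double thymidine block for G1/S, nocodazole release for mitosis), protein amounts in NP-40 versus SDS lysates quantified by mass spectrometry, three biological replicates.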
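Throughout, for solubility in G1/S (NP-40 vs SDS abundance): HeLa Kyoto cells arrested at G1/S by double thymidine block, proteins quantified by TMT10plex mass spectrometry in mild NP-40 versus SDS extracts, three biological replicates.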
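Throughout, for thermal stability score vs G1/S (z-score of summed log2 fold changes over temperatures): synchronized HeLa Kyoto cells, proteins quantified by TMT10plex mass spectrometry, three biological replicates, mitosis taken 0.5 h after nocodazole release, G1/S directly after double thymidine block.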

As for “MSLKLQASNVTNKNDPKSINSRVFIGNLNTALVKKSDVETIFSKYGRVAGCSVHKGYAFVQYSNERHARAAVLGENGRVLAGQTLDINMAGEPKPDRPKGLKRAASAIYSGYIFDYDYYRDDFYDRLFDYRGRLSPVPVPRAVPVKRPRVTVPLVRRVKTNVPVKLFARSTAVTTSSAKIKLKSSELQAIKTELTQIKSNIDALLSRLEQIAAEQKANPDGKKKGDGGGAGGGGGGGGSGGGGSGGGGGGGSSRPPAPQENTTSEAGLPQGEARTRDDGDEEGLLTHSEEELEHSQDTDADDGALQ [RALY]”, in the series on HeLa Kyoto [1], the “solubility in G1/S (log2)” value was 0.116. In addition, the “solubility change mitosis (log2)” value in the series on HeLa Kyoto [2] stood at 0.275. Moreover, the melting temperature with HeLa Kyoto [3] (cell cycle stage: G1/S) came to 47.1 °C; in the series on HeLa Kyoto [3] (cell cycle stage: mitosis), 49.4 °C. The thermal stability score in the series on HeLa Kyoto [4] (setting [5]) stood at 2.9; in the series on HeLa Kyoto [4] (cell cycle stage: mitosis), 8.45.

Take “MSLKPRVVDFDETWNKLLTTIKAVVMLEYVERATWNDRFSDIYALCVAYPEPLGERLYTETKIFLENHVRHLHKRVLESEEQVLVMYHRYWEEYSKGADYMDCLYRYLNTQFIKKNKLTEADLQYGYGGVDMNEPLMEIGELALDMWRKLMVEPLQAILIRMLLREIKNDRGGEDPNQKVIHGVINSFVHVEQYKKKFPLKFYQEIFESPFLTETGEYYKQEASNLLQESNCSQYMEKVLGRLKDEEIRCRKYLHPSSYTKVIHECQQRMVADHLQFLHAECHNIIRQEKKNDMANMYVLLRAVSTGLPHMIQELQNHIHDEGLRATSNLTQENMPTLFVESVLEVHGKFVQLINTVLNGDQHFMSALDKALTSVVNYREPKSVCKAPELLAKYCDNLLKKSAKGMTENEVEDRLTSFITVFKYIDDKDVFQKFYARMLAKRLIHGLSMSMDSEEAMINKLKQACGYEFTSKLHRMYTDMSVSADLNNKFNNFIKNQDTVIDLGISFQIYVLQAGAWPLTQAPSSTFAIPQELEKSVQMFELFYSQHFSGRKLTWLHYLCTGEVKMNYLGKPYVAMVTTYQMAVLLAFNNSETVSYKELQDSTQMNEKELTKTIKSLLDVKMINHDSEKEDIDAESSFSLNMNFSSKRTKFKITTSMQKDTPQEMEQTRSAVDEDRKMYLQAAIVRIMKARKVLRHNALIQEVISQSRARFNPSISMIKKCIEVLIDKQYIERSQASADEYSYVA [CUL2]”: the “solubility in G1/S (log2)” value in the series with HeLa Kyoto [1] is -0.219. For the same sequence, in the series on HeLa Kyoto [2], the “solubility change mitosis (log2)” value was -0.148. In addition, the melting temperature turned out to be 54.1 °C in the series with HeLa Kyoto [3] (cell cycle stage: G1/S) and 53.6 °C with HeLa Kyoto [3] (cell cycle stage: mitosis). Besides, the values for the thermal stability score in the series on HeLa Kyoto [4] (setting [5]) and in the series with HeLa Kyoto [4] (cell cycle stage: mitosis) were -0.0958 and -0.6, respectively.

For “MSLLRSLRVFLVARTGSYPAGSLLRQSPQPRHTFYAGPRLSASASSKELLMKLRRKTGYSFVNCKKALETCGGDLKQAEIWLHKEAQKEGWSKAAKLQGRKTKEGLIGLLQEGNTTVLVEVNCETDFVSRNLKFQLLVQQVALGTMMHCQTLKDQPSAYSKGFLNSSELSGLPAGPDREGSLKDQLALAIGKLGENMILKRAAWVKVPSGFYVGSYVHGAMQSPSLHKLVLGKYGALVICETSEQKTNLEDVGRRLGQHVVGMAPLSVGSLDDEPGGEAETKMLSQPYLLDPSITLGQYVQPQGVSVVDFVRFECGEGEEAAETE [TSFM]”, the “solubility in G1/S (log2)” value in the series on HeLa Kyoto [1] amounted to 0.283. Further, in the series with HeLa Kyoto [2], the “solubility change mitosis (log2)” value was -0.0285. Also, the melting temperature amounted to 47.6 °C with HeLa Kyoto [3] (cell cycle stage: G1/S) and 48.9 °C with HeLa Kyoto [3] (cell cycle stage: mitosis). The thermal stability score is -0.0634 with HeLa Kyoto [4] (setting [5]) and 3.2 in the series with HeLa Kyoto [4] (cell cycle stage: mitosis).

As for “MSLNPPIFLKRSEENSSKFVETKQSQTTSIASEDPLQNLCLASQEVLQKAQQSGRSKCLKCGGSRMFYCYTCYVPVENVPIEQIPLVKLPLKIDIIKHPNETDGKSTAIHAKLLAPEFVNIYTYPCIPEYEEKDHEVALIFPGPQSISIKDISFHLQKRIQNNVRGKNDDPDKPSFKRKRTEEQEFCDLNDSKCKGTTLKKIIFIDSTWNQTNKIFTDERLQGLLQVELKTRKTCFWRHQKGKPDTFLSTIEAIYYFLVDYHTDILKEKYRGQYDNLLFFYSFMYQLIKNAKCSGDKETGKLTH [DTWD1]”, the “solubility in G1/S (log2)” value in the series with HeLa Kyoto [1] came to 0.19. In the series with HeLa Kyoto [2], the “solubility change mitosis (log2)” value is -0.213. Further, the melting temperature turned out to be 50.9 °C in the series on HeLa Kyoto [3] (cell cycle stage: G1/S) and 50.6 °C in the series with HeLa Kyoto [3] (cell cycle stage: mitosis). Besides, the thermal stability score in the series with HeLa Kyoto [4] (setting [5]) is 1.51; with HeLa Kyoto [4] (cell cycle stage: mitosis), 1.96.

Regarding “MSLRIDVDTNFPECVVDAGKVTLGTQQRQEMDPRLREKQNEIILRAVCALLNSGGGIIKAEIENKGYNYERHGVGLDVPPIFRSHLDKMQKENHFLIFVKSWNTEAGVPLATLCSNLYHRERTSTDVMDSQEALAFLKCRTQTPTNINVSNSLGPQAAQGSVQYEGNINVSAAALFDRKRLQYLEKLNLPESTHVEFVMFSTDVSHCVKDRLPKCVSAFANTEGGYVFFGVHDETCQVIGCEKEKIDLTSLRASIDGCIKKLPVHHFCTQRPEIKYVLNFLEVHDKGALRGYVCAIKVEKFCCAVFAKVPSSWQVKDNRVRQLPTREWTAWMMEADPDLSRCPEMVLQLSLSSATPRSKPVCIHKNSECLKEQQKRYFPVFSDRVVYTPESLYKELFSQHKGLRDLINTEMRPFSQGILIFSQSWAVDLGLQEKQGVICDALLISQNNTPILYTIFSKWDAGCKGYSMIVAYSLKQKLVNKGGYTGRLCITPLVCVLNSDRKAQSVYSSYLQIYPESYNFMTPQHMEALLQSLVIVLLGFKSFLSEELGSEVLNLLTNKQYELLSKNLRKTRELFVHGLPGSGKTILALRIMEKIRNVFHCEPANILYICENQPLKKLVSFSKKNICQPVTRKTFMKNNFEHIQHIIIDDAQNFRTEDGDWYGKAKFITQTARDGPGVLWIFLDYFQTYHLSCSGLPPPSDQYPREEINRVVRNAGPIANYLQQVMQEARQNPPPNLPPGSLVMLYEPKWAQGVPGNLEIIEDLNLEEILIYVANKCRFLLRNGYSPKDIAVLFTKASEVEKYKDRLLTAMRKRKLSQLHEESDLLLQIGDASDVLTDHIVLDSVCRFSGLERNIVFGINPGVAPPAGAYNLLLCLASRAKRHLYILKASV [SLFN5]”, the “solubility in G1/S (log2)” value in the series on HeLa Kyoto [1] is -0.0689. The “solubility change mitosis (log2)” value in the series on HeLa Kyoto [2] is -0.0585. In addition, the results for the melting temperature in the series on HeLa Kyoto [3] (cell cycle stage: G1/S) and in the series on HeLa Kyoto [3] (cell cycle stage: mitosis) were 48.5 °C and 49.4 °C, respectively. Besides, the figures for the thermal stability score in the series on HeLa Kyoto [4] (setting [5]) and in the series with HeLa Kyoto [4] (cell cycle stage: mitosis) were 1.54 and 2.13, respectively.

As to “MSLRQRLAQLVGRLQDPQKVARFQRLCGVEAPPRRSADRREDEKAEAPLAGDPRLRGRQPGAPGGPQPPGSDRNQCPAKPDGGGAPNGVRNGLAAELGPASPRRAGALRRNSLTGEEGQLARVSNWPLYCLFCFGTELGNELFYILFFPFWIWNLDPLVGRRLVVIWVLVMYLGQCTKDIIRWPRPASPPVVKLEVFYNSEYSMPSTHAMSGTAIPISMVLLTYGRWQYPLIYGLILIPCWCSLVCLSRIYMGMHSILDIIAGFLYTILILAVFYPFVDLIDNFNQTHKYAPFIIIGLHLALGIFSFTLDTWSTSRGDTAEILGSGAGIACGSHVTYNMGLVLDPSLDTLPLAGPPITVTLFGKAILRILIGMVFVLIIRDVMKKITIPLACKIFNIPCDDIRKARQHMEVELPYRYITYGMVGFSITFFVPYIFFFIGIS [SGPP1]”, in the series with HeLa Kyoto [1], the “solubility in G1/S (log2)” value is -0.0125. Moreover, the “solubility change mitosis (log2)” value with HeLa Kyoto [2] was -0.122. In addition, the melting temperature in the series on HeLa Kyoto [3] (cell cycle stage: G1/S) stood at 53.9 °C; in the series on HeLa Kyoto [3] (cell cycle stage: mitosis), 53.4 °C. Besides, the thermal stability score turned out to be 1.45 in the series on HeLa Kyoto [4] (setting [5]) and 1.19 in the series with HeLa Kyoto [4] (cell cycle stage: mitosis).

Consider “MSLSDWHLAVKLADQPLTPKSILRLPETELGEYSLGGYSISFLKQLIAGKLQESVPDPELIDLIYCGRKLKDDQTLDFYGIQPGSTVHVLRKSWPEPDQKPEPVDKVAAMREFRVLHTALHSSSSYREAVFKMLSNKESLDQIIVATPGLSSDPIALGVLQDKDLFSVFADPNMLDTLVPAHPALVNAIVLVLHSVAGSAPMPGTDSSSRSMPSSSYRDMPGGFLFEGLSDDEDDFHPNTRSTPSSSTPSSRPASLGYSGAAGPRPITQSELATALALASTPESSSHTPTPGTQGHSSGTSPMSSGVQSGTPITNDLFSQALQHALQASGQPSLQSQWQPQLQQLRDMGIQDDELSLRALQATGGDIQAALELIFAGGAP [UBL7]”, for which the “solubility in G1/S (log2)” value in the series with HeLa Kyoto [1] worked out at 0.396. Besides, the “solubility change mitosis (log2)” value in the series with HeLa Kyoto [2] amounted to 0.156. Besides, the melting temperature in the series with HeLa Kyoto [3] (cell cycle stage: G1/S) and in the series with HeLa Kyoto [3] (cell cycle stage: mitosis) was 50.8 °C in each case. For the same sequence, the thermal stability score in the series on HeLa Kyoto [4] (setting [5]) is -0.52; in the series on HeLa Kyoto [4] (cell cycle stage: mitosis) it was -0.245.
